T1: CXCR3 (UniProt P49682 1-368, limits assumed)
T1 construct: whole, on cells
T1 sequence (looked up): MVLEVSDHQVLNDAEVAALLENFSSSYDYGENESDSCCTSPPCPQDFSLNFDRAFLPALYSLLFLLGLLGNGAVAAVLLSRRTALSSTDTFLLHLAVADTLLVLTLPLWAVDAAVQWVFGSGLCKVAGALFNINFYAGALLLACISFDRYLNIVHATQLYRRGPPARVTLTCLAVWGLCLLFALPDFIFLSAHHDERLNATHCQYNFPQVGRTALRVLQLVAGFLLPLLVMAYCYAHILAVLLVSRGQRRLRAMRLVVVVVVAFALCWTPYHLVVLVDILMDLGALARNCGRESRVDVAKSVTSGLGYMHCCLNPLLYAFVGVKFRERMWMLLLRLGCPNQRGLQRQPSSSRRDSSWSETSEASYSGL

B1: Nanobody 238D2 (VHH)
VHH: EVQLVESGGGLVQTGGSLRLSCAASGFTFSSYAMSWVRQAPGKGLEWVSGIKSSGDSTRYAGSVKGRFTISRDNAKNMLYLQMYSLKPEDTAVYYCAKSRVSRTGLYTYDNRGQGTQVTVSS
modifications: In some assays the Nanobody was 125I-labelled (Iodo-gen, on tyrosine); the letters do not carry this.
notes: Monovalent llama VHH against human CXCR4, purified; tags not described; also called 238C1
B2: Nanobody 03F11 (VHH)
VHH: EVQLVESGGGSVQPGGSLTLSCGTSGRTFNVMGWFRQAPGKEREFVAAVRWSSTGIYYTQYADSVKSRFTISRDNAKNTVYLEMNSLKPEDTAVYYCAADTYNSNPARWDGYDFRGQGTQVTVSS

Experiments:
[1] = target: CCR5 (UniProt P51681 1-352, limits assumed); test: cell-based or functional assay
Sequence of CCR5 (P51681 whole entry): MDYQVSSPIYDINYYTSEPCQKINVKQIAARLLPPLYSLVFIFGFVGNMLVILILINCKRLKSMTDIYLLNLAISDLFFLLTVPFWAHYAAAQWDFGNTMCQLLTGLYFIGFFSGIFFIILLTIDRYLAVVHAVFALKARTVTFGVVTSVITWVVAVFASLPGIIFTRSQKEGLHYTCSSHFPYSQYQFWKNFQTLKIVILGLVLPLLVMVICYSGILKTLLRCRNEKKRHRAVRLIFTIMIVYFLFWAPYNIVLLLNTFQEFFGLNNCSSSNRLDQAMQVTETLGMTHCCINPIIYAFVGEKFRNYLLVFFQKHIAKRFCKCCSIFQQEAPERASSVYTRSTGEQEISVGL

[2] = target: T1, CXCR3; test: total binding of [125I]-238D2 to membranes of HEK293T cells expressing CXCR4 or CXCR3
[3] = target: human CD4 on cells (human, UniProt P01730 26-458); test: cell-based or functional assay

Row | Binder | IC50, HIV-1 BaL, PBMC donor 1 [1] | IC50, HIV-1 BaL, PBMC donor 2 [1] | nM IC50, HIV-1 BAL, PBMC donor 1 [1] | nM IC50, HIV-1 BAL, PBMC donor 2 [1] | binding result [2] | anti-HIV activity, NL4.3 on MT4 cells, MTS method, IC50 [3] | anti-HIV activity, NL4.3 on MT4 cells, p24 levels, IC50 [3]
1 | B1 | > 1 µg/mL | > 1 µg/mL | > 67 nM | > 67 nM | no binding (tested: 3 nM radioligand) | – | –
2 | B2 | – | – | – | – | – | 85 nM | 15 nM

Reference: patent US20110318347A1 (Ablynx, published 2011)
